Experimental findings from publication PMC12957837, “Crotonylation driving Streptococcus pneumoniae adaption and virulence” (Journal of Advanced Research, 2025) are described below.

Substitutions are numbered along the chain they refer to. Names and notes keep the numbering of the source.

One data set has as its target SPD_0839 (Streptococcus pneumoniae, UniProt A0A0H2ZP99). The experiment in a line: isothermal titration calorimetry. The format is binding. (ITC needs no label: the signal is the heat of the interaction.)
Data set [1] concerns the molecule itself. The experiment in a line: nanoparticle tracking analysis; NanoSight NS300, samples diluted with PBS, 25 °C; particle concentration of PLY and its mutants.
Data set [2] concerns the molecule itself. The experiment in a line: native gel or EMSA; native gel of purified PLY and its mutants; oligomeric and monomeric forms marked by arrows. On the technique in general: Mobility shift assays separate free from complexed probe on a gel.
Data set [3] deals with the molecule itself. The experiment in a line: SDS-PAGE without β-mercaptoethanol + Western blot; 1 µg Ply or mutant incubated with 125 µM crotonyl-CoA at 25 °C for 16 h; SDS loading buffer without β-mercaptoethanol, 55 °C for 10 min; 6 % SDS-PAGE; anti-Ply Western blot. On the technique in general: A western blot detects proteins with antibodies after separation by electrophoresis.

SPD_0839, sequence (A0A0H2ZP99 entry or part of it): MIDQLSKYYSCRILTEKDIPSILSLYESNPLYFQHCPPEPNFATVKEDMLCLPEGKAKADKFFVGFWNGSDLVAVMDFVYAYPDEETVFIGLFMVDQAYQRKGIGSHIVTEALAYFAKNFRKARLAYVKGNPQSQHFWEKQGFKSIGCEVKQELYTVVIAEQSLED

`CC(=O)SCCNC(=O)CCNC(=O)[C@H](O)C(C)(C)COP(=O)(O)OP(=O)(O)OC[C@H]1O[C@@H](n2cnc3c(N)ncnc32)[C@H](O)[C@@H]1OP(=O)(O)O` [AcCoA]: at SPD_0839, the Kd turned out to be 10.4 µM.
Same read-out and setting: with `C/C=C/C(=O)SCCNC(=O)CCNC(=O)[C@H](O)C(C)(C)COP(=O)(O)OP(=O)(O)OC[C@H]1O[C@@H](n2cnc3c(N)ncnc32)[C@H](O)[C@@H]1OP(=O)(O)O` [CrCoA] the figure was 1 µM.

B1: pneumolysin (PLY), wild type (natural protein, Streptococcus pneumoniae D39, UniProt Q04IN8 1-471, looked up)
chain: MANKAVNDFILAMNYDKKKLLTHQGESIENRFIKEGNQLPDEFVVIERKKRSLSTNTSDISVTATNDSRLYPGALLVVDETLLENNPTLLAVDRAPMTYSIDLPGLASSDSFLQVEDPSNSSVRGAVNDLLAKWHQDYGQVNNVPARMQYEKITAHSMEQLKVKFGSDFEKTGNSLDIDFNSVHSGEKQIQIVNFKQIYYTVSVDAVKNPGDVFQDTVTVEDLKQRGISAERPLVYISSVAYGRQVYLKLETTSKSDEVEAAFEALIKGVKVAPQTEWKQILDNTEVKAVILGGDPSSGARVVTGKVDMVEDLIQEGSRFTADHPGLPISYTTSFLRDNVVATFQNSTDYVETKVTAYRNGDLLLDHSGAYVAQYYITWDELSYDHQGKEVLTPKAWDRNGQDLTAHFTTSIPLKGNVRNLSVKIRECTGLAWEWWRTVYEKTDLPLVRKRTISIWGTTLYPQVEDKVEND
notes: pneumolysin (PLY) of Streptococcus pneumoniae serotype 2 strain D39; also called wild-type PLY; WT PLY
In the case of B1, the binding result in data set [1] is reported as “binds”.

B2: pneumolysin (PLY) K164R (natural protein, Streptococcus pneumoniae D39, UniProt Q04IN8 1-471, looked up)
chain: B1 chain with K164R
notes: pneumolysin (PLY) of Streptococcus pneumoniae serotype 2 strain D39 with K164R
Consider B2, for which the binding result in data set [2] is on record as “binds”.

B3: pneumolysin (PLY) K171R (natural protein, Streptococcus pneumoniae D39, UniProt Q04IN8 1-471, looked up)
chain: B1 chain with K171R
notes: pneumolysin (PLY) of Streptococcus pneumoniae serotype 2 strain D39 with K171R
For B3, the binding result in data set [1] is recorded as “binds”.

B4: pneumolysin (PLY) K442R (natural protein, Streptococcus pneumoniae D39, UniProt Q04IN8 1-471, looked up)
chain: B1 chain with K442R
notes: pneumolysin (PLY) of Streptococcus pneumoniae serotype 2 strain D39 with K442R
Regarding B4, the binding result in data set [1] is on record as “binds”.

B5: crotonylated pneumolysin (PLY incubated with crotonyl-CoA) (natural protein, Streptococcus pneumoniae D39, UniProt Q04IN8 1-471, looked up)
chain: B1 chain
modifications: lysine crotonylation (Kcr); K171 and K442 are the Kcr sites the paper names
notes: pneumolysin (PLY) of Streptococcus pneumoniae serotype 2 strain D39; also called crotonylated PLY; source: E. coli BL21 (λDE3), purified, then incubated with 125 µM crotonyl-CoA at 25 °C for 16 h
In the case of B5, the binding result in data set [3] is “binds”.

Usually Kd stands for the concentration at which binding is half-saturated.
